Target: the molecule itself
Test: SEC

B1: Physalis mottle virus (PhMV) virus-like particle, native (unmodified recombinant coat protein) (natural protein)
chain: MDSSEVVKVKQASIPAPGSILSQPNTEQSPAIVLPFQFEATTFGTAETAAQVSLQTADPITKLTAPYRHAQIVECKAILTPTDLAVSNPLTVYLAWVPANSPATPTQILRVYGGQSFVLGGAISAAKTIEVPLNLDSVNRMLKDSVTYTDTPKLLAYSRAPTNPSKIPTASIQISGRIRLSKPMLIAN
- binding result: binds

Reference: PMC7060085 (ACS applied materials & interfaces, 2019)
